Assay results published in patent US6451312.

Legend:
human endoglin (human) [1] = target: human endoglin (human) (UniProt P17813); experiment: cell-based or functional assay
human endoglin (human) [2] = target: human endoglin (human) (UniProt P17813); experiment: FACS on HUVEC, half-maximal fluorescence
human endoglin (human) [3] = target: human endoglin (human) (UniProt P17813); experiment: FACS, corrected fluorescence intensity grade, U937
human endoglin (human) [4] = target: human endoglin (human) (UniProt P17813); experiment: FACS, corrected fluorescence intensity grade, HUVEC
human endoglin (human) [5] = target: human endoglin (human) (UniProt P17813); experiment: indirect immunofluorescence FACS on HUVEC, 10 µg/ml
human endoglin (human) [6] = target: human endoglin (human) (UniProt P17813); experiment: FACS, corrected fluorescence intensity grade, ECV-304
human endoglin (human) [7] = target: human endoglin (human) (UniProt P17813); experiment: FACS, corrected fluorescence intensity grade, A375M and T8
human endoglin (human) [8] = target: human endoglin (human) (UniProt P17813); experiment: FACS, corrected fluorescence intensity grade, HT-1080 and SAOS-2
human endoglin (human) [9] = target: human endoglin (human) (UniProt P17813); experiment: FACS, corrected fluorescence intensity grade, MDA-MB-231 and SKBR3
human endoglin (human) [10] = target: human endoglin (human) (UniProt P17813); experiment: FACS, corrected fluorescence intensity grade, L-endoglin transfectant
human endoglin (human) [11] = target: human endoglin (human) (UniProt P17813); experiment: FACS, 20 µg/ml TEC-11, sorted Endoglin^hi fraction of postconfluent HUVEC; SD in parentheses
human endoglin (human) [12] = target: human endoglin (human) (UniProt P17813); experiment: FACS, 20 µg/ml TEC-11, sorted Endoglin^lo fraction of postconfluent HUVEC; SD in parentheses
human endoglin (human) [13] = target: human endoglin (human) (UniProt P17813); experiment: competition FACS on HUVEC; unlabelled TEC-11 against biotinylated TEC-4 (competitor), ratio 1:1
human endoglin (human) [14] = target: human endoglin (human) (UniProt P17813); experiment: competition FACS on HUVEC; unlabelled TEC-4 against biotinylated TEC-11 (competitor), ratio 1:1
human endoglin (human) [15] = target: human endoglin (human) (UniProt P17813); experiment: competition FACS on HUVEC; unlabelled TEC-4 against biotinylated TEC-11 (competitor), ratio 1:100

complement fixation relative to TEC-4 (human endoglin (human) [1]) | complement-mediated lysis of HUVEC (guinea pig complement, trypan blue) (human endoglin (human) [1]) | EC50 (human endoglin (human) [2]) | corrected fluorescence intensity (CFI) (human endoglin (human) [3]) | corrected fluorescence intensity (CFI) (human endoglin (human) [4]) | specific mean fluorescence intensity (MFI) (human endoglin (human) [5]) | corrected fluorescence intensity (CFI) (human endoglin (human) [6]) | corrected fluorescence intensity (CFI) (human endoglin (human) [7]) | corrected fluorescence intensity (CFI) (human endoglin (human) [8]) | corrected fluorescence intensity (CFI) (human endoglin (human) [9]) | corrected fluorescence intensity (CFI) (human endoglin (human) [10]) | MFI (human endoglin (human) [11]) | MFI (human endoglin (human) [12]) | percent blocking of biotinylated TEC-4 (human endoglin (human) [13]) | percent blocking of biotinylated TEC-11 (human endoglin (human) [14]) | percent blocking of biotinylated TEC-11 (human endoglin (human) [15]) | Substance
100 fold | > 50% | 0.4 µg/mL | 5 to 25 cfi | > 100 cfi | 200 | 25 to 50 cfi | 5 to 25 cfi | 5 to 25 cfi | 5 to 25 cfi | 50 to 100 cfi | 270 | 61.6 | 51% | – | – | TEC-11 (tumor endothelial cell antibody 11)
– | 48% | 4 µg/mL | 5 to 25 cfi | > 100 cfi | 200 | 25 to 50 cfi | 5 to 25 cfi | 5 to 25 cfi | 5 to 25 cfi | 50 to 100 cfi | – | – | – | 1% | 20% | TEC-4 (tumor endothelial cell antibody 4)
